Measured values published in patent publication US20030235857A1 (WHITEHEAD INSTITUTE FOR BIOMEDICAL RESEARCH A DELAWARE, published 2003).

T1: Sfl1 fused to the Gal4 activation domain (Saccharomyces cerevisiae, UniProt P20134 1-766, limits assumed)
T1 construct: also called YOR140w
T1 sequence (looked up): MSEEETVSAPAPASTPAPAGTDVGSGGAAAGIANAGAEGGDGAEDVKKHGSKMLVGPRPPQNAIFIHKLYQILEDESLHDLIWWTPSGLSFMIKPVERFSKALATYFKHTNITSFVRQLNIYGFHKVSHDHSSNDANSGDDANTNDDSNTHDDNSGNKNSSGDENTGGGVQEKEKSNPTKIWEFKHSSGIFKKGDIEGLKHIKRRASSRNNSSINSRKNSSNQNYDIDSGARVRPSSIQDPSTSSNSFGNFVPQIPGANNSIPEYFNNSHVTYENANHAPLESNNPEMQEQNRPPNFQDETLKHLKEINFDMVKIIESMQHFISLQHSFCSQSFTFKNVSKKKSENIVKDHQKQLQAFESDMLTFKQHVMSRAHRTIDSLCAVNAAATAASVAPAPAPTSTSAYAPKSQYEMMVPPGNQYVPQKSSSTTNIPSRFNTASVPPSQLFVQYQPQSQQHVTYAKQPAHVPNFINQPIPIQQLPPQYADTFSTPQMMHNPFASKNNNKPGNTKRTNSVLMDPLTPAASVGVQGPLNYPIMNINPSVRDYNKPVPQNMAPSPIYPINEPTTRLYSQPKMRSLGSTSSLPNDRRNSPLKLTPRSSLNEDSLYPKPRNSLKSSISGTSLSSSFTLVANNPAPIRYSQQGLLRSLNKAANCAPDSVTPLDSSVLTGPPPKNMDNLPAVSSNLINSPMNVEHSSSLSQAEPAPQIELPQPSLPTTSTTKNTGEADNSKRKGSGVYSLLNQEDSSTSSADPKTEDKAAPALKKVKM

B1: Tpk1 fused to the Gal4 DNA binding domain (enzyme, UniProt P04386 1-147, looked up)
chain: MKLLSSIEQACDICRLKKLKCSKEKPKCAKCLKNNWECRYSPKTKRSPLTRAHLTEVESRLERLEQLFLLIFPREDLDMILKMDSLQDIKALLTGLFVQDNVNKDAVTDRLASVETDMPLTLRQHRISATSSSEESSNKGQRQLTVSMSTEEQNGGGQKSLDDRQGEESQKGETSERETTATESGNESKSVEKEGGETQEKPKQPHVTYYNEEQYKQFIAQARVTSGKYSLQDFQILRTLGTGSFGRVHLIRSRHNGRYYAMKVLKKEIVVRLKQVEHTNDERLMLSIVTHPFIIRMWGTFQDAQQIFMIMDYIEGGELFSLLRKSQRFPNPVAKFYAAEVCLALEYLHSKDIIYRDLKPENILLDKNGHIKITDFGFAKYVPDVTYTLCGTPDYIAPEVVSTKPYNKSIDWWSFGILIYEMLAGYTPFYDSNTMKTYEKILNAELRFPPFFNEDVKDLLSRLITRDLSQRLGNLQNGTEDVKNHPWFKEVVWEKLLSRNIETPYEPPIQQGQGDTSQFDKYPEEDINYGVQGEDPYADLFRDF
notes: Two-hybrid bait used for retesting positive clones
B2: Tpk3 fused to the Gal4 DNA binding domain (enzyme, UniProt P04386 1-147, looked up)
chain: MKLLSSIEQACDICRLKKLKCSKEKPKCAKCLKNNWECRYSPKTKRSPLTRAHLTEVESRLERLEQLFLLIFPREDLDMILKMDSLQDIKALLTGLFVQDNVNKDAVTDRLASVETDMPLTLRQHRISATSSSEESSNKGQRQLTVSMYVDPMNNNEIRKLSITAKTETTPDNVGQDIPVNAHSVHEECSSNTPVEINGRNSGKLKEEASAGICLVKKPMLQYRDTSGKYSLSDFQILRTLGTGSFGRVHLIRSNHNGRFYALKTLKKHTIVKLKQVEHTNDERRMLSIVSHPFIIRMWGTFQDSQQVFMVMDYIEGGELFSLLRKSQRFPNPVAKFYAAEVCLALEYLHSKDIIYRDLKPENILLDKNGHIKITDFGFAKYVPDVTYTLCGTPDYIAPEVVSTKPYNKSVDWWSFGVLIYEMLAGYTPFYNSNTMKTYENILNAELKFPPFFHPDAQDLLKKLITRDLSERLGNLQNGSEDVKNHPWFNEVIWEKLLARYIETPYEPPIQQGQGDTSQFDRYPEEEFNYGIQGEDPYMDLMKEF
notes: Two-hybrid bait used for retesting positive clones; also called YKL166c

Assays:
Assay in all cases: yeast two-hybrid, GAL4-ADE2 reporter, growth without adenine
[1] = target: T1, Sfl1 fused to the Gal4 activation domain
Excerpt: (§1) Other additional members of these signal transduction cascades are identified through a variety of standard techniques. First, enhancers and suppressors of phenotypes of mutant strains are isolated using standard techniques known to those skilled in the art (Ausubel, supra). Second, proteins which interact with pathway members are isolated using yeast two-hybrid methods (Fields and Song, Nature 1989, 340:245-246; Chien et al., Proc. Natl. Acad. Sci. USA 1991, 88:9578-9582; Brent and Finley, Annu. Rev. Genet. 1997, 31:663-704). In one example, proteins which specifically interact with an A kinase catalytic subunit Tpk2, and not with related proteins Tpk1 and Tpk3 were identified and shown to be important for pseudohyphal development. […] Similarly, haploid tpk2 mutants were defective for invasive growth and tpk3 mutants were hyperinvasive (FIG. 2A). tpk1 mutants were indistinguishable from wild-type strains as both haploids and diploids. The accentuated filamentation and invasion phenotypes of tpk3 mutants required a functional Tpk2 as tpk2 tpk3 mutants had the same phenotype as tpk2 single mutants. As Tpk2 appeared to be uniquely required for pseudohyphal growth, we used a two-hybrid screen to identify proteins that interact specifically with Tpk2. The intact open reading frame of TPK2 was fused to coding sequence for the Gal4 DNA binding domain and used to screen a library of yeast genomic fragments fused to coding sequence for the Gal4 transcriptional activation domain. Activation of the GAL4-ADE2 reporter, leading to adenine-independent growth of an ade-strain was taken as preliminary evidence for an interaction between the Gal4 DNA binding domain:Tpk2 fusion and the Tpk2 interacting protein fused to the Gal4 activation domain. Positive clones were then retested in the two-hybrid assay with Tpk1, Tpk2, Tpk3, or Dph1 fused to the Gal4 DNA binding domain. DPH1, a gene required for diphthamide biosynthesis, as used to control for interactions that were not specific to the PKA isoforms.

[2] = target: B1
Excerpt: as §1

[3] = target: B2
Excerpt: as §1

Binder | binding result [1] | binding result [2] | binding result [3]
B1 | no binding |  | 
B2 | no binding |  | 
Mga1 fused to the Gal4 activation domain (other, Saccharomyces cerevisiae, UniProt P53050 1-456, looked up, not shown: large carriers, also called YGR249w) MQPKTFVHQLHAILLEPEVNKWIYWSPTDNTVFFLKPYDPNFSTHVLKRYFKHGNVNSFVRQLHMYGFHKLSHPSPDQSSANNGNVKELVEWKFTHPSGFFFKEANAGILNKIQRKSTGVGKDGKRKNILSPISVSYVDASRLNVLSQQSGPVSAREPSNMFMGSPVHYSTSQSPPHISIPQQQQSSGPYLISSLPPQQPTVNMMRRQSISARMMNSYDYPNQFSTQDSIVQPQQPQQVLSPQALSGPPMKKSGTLSSTDDLKTTSLPIVNYPMPYHPGAFAQQQQQQQQPLPTVPPYSSYSTPFPSMMNSLSNSASNSPALGVCNNNVTLPKKSNISERQALDNHIQTLKNSLSTITDLIEKHINSASQDENKTLTNDAMNKDLRTSLSLLQNSKEEIIQLESKWMSMQSVKTTALPLQETTNTSSTLTSLTSSIIPKSIPIITKGEVATKPASY |  | no binding | no binding
